The values that follow come from US20130230510A1.

As usually defined, the Kd is the equilibrium constant for the complex coming apart. The low end stands for a tighter complex, the high end for a looser complex.

The target in experiment [1] is CD123 (human IL-3Rα) (human) (UniProt P26951). Put plainly: method not stated (indicative KD).
The target is the same in experiment [2]. Nature of the experiment: method not stated.
The target in experiment [3] is CD123 (human IL-3Rα) on cells (human) (UniProt P26951). Put plainly: cell-based or functional assay.
Experiment [4] shares this target. Nature of the experiment: cell-based or functional assay. The source holds these as a separate data set.

For “humanised variant of CSL360 (hCSL360) (antibody)”, the Kd in experiment [1] was 12.8 nM. In addition, the fold decrease in affinity compared to the chimeric MAb (CSL360) in experiment [2] is 10 fold. For the same molecule, in experiment [3], the IC50, IL-3-dependent TF-1 cell proliferation amounted to 19 nM.
In the case of chimeric antibody CSL360, the Kd in experiment [1] was 1.06 nM. In experiment [3], this molecule registered a % CD107a positive NK cells, RMH003 AML target cells, CSL360 10 µg/mL (FIG. 8B) of 39%; a % lysis, 51Cr release ADCC, CTLEN cells, E:T 10:1 of 10%; a % lysis, 51Cr release ADCC, CTLEN cells, E:T 100:1 of 51%; a % lysis, 51Cr release ADCC, SL (AML) cells, E:T 10:1 of 2.4%. In addition, in experiment [3], the % lysis, 51Cr release ADCC, SL (AML) cells, E:T 100:1 amounted to 15%; the % lysis, calcein release ADCC, RBH013 (AML), E:T 10:1 is 0%; the % lysis, calcein release ADCC, RBH013 (AML), E:T 100:1 is 0%; the % lysis, calcein release ADCC, RMH003 (AML), E:T 10:1 is 39.2%. Besides, in experiment [3], the % lysis, calcein release ADCC, RMH003 (AML), E:T 100:1 is 82.6%; the % lysis, calcein release ADCC, RMH008 (AML), E:T 10:1 is 59.5%; the % lysis, calcein release ADCC, RMH008 (AML), E:T 100:1 was 100%; the % lysis, calcein release ADCC, RMH009 (B-ALL), E:T 10:1 is 0%. Also, in experiment [3], the % lysis, calcein release ADCC, RMH009 (B-ALL), E:T 100:1 is 0%; the % lysis, calcein release ADCC, RMH009* (B-ALL), repeat with other PBMC, E:T 10:1 is 0%; the % lysis, calcein release ADCC, RMH009* (B-ALL), repeat with other PBMC, E:T 100:1 was 0%; the % lysis, calcein release ADCC, RMH010 (AML), E:T 10:1 was 4%. In addition, in experiment [3], the % lysis, calcein release ADCC, RMH010 (AML), E:T 100:1 is 0%; the % of NK cells expressing CD107a, E:T 1:1, target CTLEN-001 was 6.7%; the % of NK cells expressing CD107a, E:T 1:1, target CTLEN-008 was found to be 24%; the % of NK cells expressing CD107a, E:T 1:1, target CTLEN-010 turned out to be 5.7%. Further, in experiment [3], the % of NK cells expressing CD107a, E:T 1:1, target CTLEN-011-PBMC-1 came out at 8.1%; the % of NK cells expressing CD107a, E:T 1:1, target CTLEN-011-PBMC-2 was 10.5%; the % of NK cells expressing CD107a, E:T 1:1, target EL4hi-002 stood at 2.9%; the % of NK cells expressing CD107a, E:T 1:1, target EL4hi-003 worked out at 15%. In experiment [3], this molecule yielded a % of NK cells expressing CD107a, E:T 1:1, target EL4hi-004 of 16%; a % of NK cells expressing CD107a, E:T 1:1, target EL4hi-005 of 21%; a % of NK cells expressing CD107a, E:T 1:1, target EL4hi-010 of 34%; a % of NK cells expressing CD107a, E:T 1:1, target EL4hi-011-PBMC-1 of 15.5%. For the same molecule, in experiment [3], the % of NK cells expressing CD107a, E:T 1:1, target EL4hi-011-PBMC-2 came out at 23.5%; the % of NK cells expressing CD107a, E:T 1:1, target EL4hi/lo-001 amounted to 2.8%; the % of NK cells expressing CD107a, E:T 1:1, target RBH009^a (AML) was found to be 8.5%; the % of NK cells expressing CD107a, E:T 1:1, target RBH009^b (AML) was determined as 8%. In experiment [3], this molecule showed a % of NK cells expressing CD107a, E:T 1:1, target RBH013^a (AML) of 10%; a % of NK cells expressing CD107a, E:T 1:1, target RBH013^b (AML) of 22%; a % of NK cells expressing CD107a, E:T 1:1, target RMH003^a (AML) of 30%; a % of NK cells expressing CD107a, E:T 1:1, target RMH003^b (AML) of 33%. In experiment [3], this molecule returned a % of NK cells expressing CD107a, E:T 1:1, target RMH003^c (AML) of 38%; a % of NK cells expressing CD107a, E:T 1:1, target RMH007 (B-ALL) of 16.4%; a % of NK cells expressing CD107a, E:T 1:1, target RMH008^a (AML) of 9%; a % of NK cells expressing CD107a, E:T 1:1, target RMH008^b (AML) of 16%. Also, in experiment [3], the % of NK cells expressing CD107a, E:T 1:1, target RMH008^c (AML) was determined as 8.7%; the % of NK cells expressing CD107a, E:T 1:1, target RMH009^a (B-ALL) turned out to be 3%; the % of NK cells expressing CD107a, E:T 1:1, target RMH009^b (B-ALL) stood at 1.7%; the % of NK cells expressing CD107a, E:T 1:1, target RMH009^c (B-ALL) came out at 7.4%. In experiment [3], this molecule showed a % of NK cells expressing CD107a, E:T 1:1, target RMH010^a (AML) of 14%; a % of NK cells expressing CD107a, E:T 1:1, target RMH010^b (AML) of 25.5%; a % of NK cells expressing CD107a, E:T 1:1, target RMH011 (AML) of 6.6%; a % of NK cells expressing CD107a, E:T 1:1, target TF-1 (GM-CSF) of 0.7%. In experiment [3], this molecule yielded a % of NK cells expressing CD107a, E:T 1:1, target TF-1(IL-3) of 1.45% and an IC50, IL-3-dependent TF-1 cell proliferation of 5 nM.
The molecule “defucosylated hCSL360 produced by kifunensine treatment (hCSL360kif) (antibody)” displayed an antibody concentration for almost complete ADCC lysis of Raji-CD123 high cells, E:T 50:1 in experiment [3] of 1 ng/mL.
Take “humanised CSL360S239D/A330L/I332E (hCSL360Fc3) (from UniProt P01857 1-330) (antibody)”: the antibody concentration for almost complete ADCC lysis of Raji-CD123 high cells, E:T 50:1 in experiment [3] turned out to be 1 ng/mL.

B1: monoclonal antibody (MAb) 7G3 (antibody, from another filing, V domains shown)
VH: EVQLQQSGPELVKPGASVKMSCKASGYTFTDYYMKWVKQSHGKSLEWIGDIIPSNGATFYNQKFKGKATLTVDRSSSTAYMHLNSLTSEDSAVYYCTRSHLLRASWFAYWGQGTLVTVSA
VL: DFVMTQSPSSLTVTAGEKVTMSCKSSQSLLNSGNQKNYLTWYLQKPGQPPKLLIYWASTRESGVPDRFTGSGSGTDFTLTISSVQAEDLAVYYCQNDYSYPYTFGGGTKLEIKR
As to B1, the IL-3 (1 nM)-stimulated CD131 tyrosine phosphorylation, STAT-5 and Akt activation in TF-1 cells; 7G3 concentration that blocks completely in experiment [4] was determined as 100 nM.
